The MegaScale stability set (Tsuboyama et al. 2023)

B1: HEEH_KT_rd6_3546 (parent)
chain: SEEDKEREHWERLNRDFELRVLDTTFIAHHAEEVIKLLRWLEK

Variants of: B1
Assay: folding stability dG (cDNA display proteolysis); higher = more stable
Conditions: PBS, room temperature

| Variant | folding stability dG [kcal/mol] |
| --- | --- |
| SEEDKEREHWERLNRDFELRVLDTTFIAHHAEEVIKLLRQLEK [W40Q] | 0.781 |
| SEEDKEREHWERLNRDFELRVLDTTFIAHHAEEVIKLLRRLEK [W40R] | 0.934 |
| SEEDKEREHWERLNRDFELRVLDTTFIAHHAEEVIKLLRSLEK [W40S] | 0.639 |
| SEEDKEREHWERLNRDFELRVLDTTFIAHHAEEVIKLLRTLEK [W40T] | 0.373 |
| SEEDKEREHWERLNRDFELRVLDTTFIAHHAEEVIKLLRVLEK [W40V] | 0.885 |
| SEEDKEREHWERLNRDFELRVLDTTFIAHHAEEVIKLLRYLEK [W40Y] | 1.13 |
| SEEDKEREHWERLNRDFELRVLDTTFIAHHAEEVIKLLRWAEK [L41A] | 0.58 |
| SEEDKEREHWERLNRDFELRVLDTTFIAHHAEEVIKLLRWCEK [L41C] | 1.83 |
| SEEDKEREHWERLNRDFELRVLDTTFIAHHAEEVIKLLRWDEK [L41D] | -0.253 |
| SEEDKEREHWERLNRDFELRVLDTTFIAHHAEEVIKLLRWEEK [L41E] | -0.48 |
| SEEDKEREHWERLNRDFELRVLDTTFIAHHAEEVIKLLRWFEK [L41F] | 1.38 |
| SEEDKEREHWERLNRDFELRVLDTTFIAHHAEEVIKLLRWGEK [L41G] | 0.088 |
| SEEDKEREHWERLNRDFELRVLDTTFIAHHAEEVIKLLRWHEK [L41H] | 0.356 |
| SEEDKEREHWERLNRDFELRVLDTTFIAHHAEEVIKLLRWIEK [L41I] | 1.14 |
| SEEDKEREHWERLNRDFELRVLDTTFIAHHAEEVIKLLRWKEK [L41K] | 0.491 |
| SEEDKEREHWERLNRDFELRVLDTTFIAHHAEEVIKLLRWMEK [L41M] | 1.22 |
| SEEDKEREHWERLNRDFELRVLDTTFIAHHAEEVIKLLRWNEK [L41N] | -0.295 |
| SEEDKEREHWERLNRDFELRVLDTTFIAHHAEEVIKLLRWPEK [L41P] | 0.119 |
| SEEDKEREHWERLNRDFELRVLDTTFIAHHAEEVIKLLRWQEK [L41Q] | 0.519 |
| SEEDKEREHWERLNRDFELRVLDTTFIAHHAEEVIKLLRWREK [L41R] | 0.586 |

| Variant | folding stability dG [kcal/mol] |
| --- | --- |
| SEEDKEREHWERLNRDFELRVLDTTFIAHHAEEVIKLLRWSEK [L41S] | -0.005 |
| SEEDKEREHWERLNRDFELRVLDTTFIAHHAEEVIKLLRWTEK [L41T] | 0.442 |
| SEEDKEREHWERLNRDFELRVLDTTFIAHHAEEVIKLLRWVEK [L41V] | 1.21 |
| SEEDKEREHWERLNRDFELRVLDTTFIAHHAEEVIKLLRWWEK [L41W] | 1.22 |
| SEEDKEREHWERLNRDFELRVLDTTFIAHHAEEVIKLLRWYEK [L41Y] | 0.761 |
| SEEDKEREHWERLNRDFELRVLDTTFIAHHAEEVIKLLRWLAK [E42A] | 1.82 |
| SEEDKEREHWERLNRDFELRVLDTTFIAHHAEEVIKLLRWLDK [E42D] | 1.07 |
| SEEDKEREHWERLNRDFELRVLDTTFIAHHAEEVIKLLRWLFK [E42F] | 2.75 |
| SEEDKEREHWERLNRDFELRVLDTTFIAHHAEEVIKLLRWLGK [E42G] | 1.7 |
| SEEDKEREHWERLNRDFELRVLDTTFIAHHAEEVIKLLRWLHK [E42H] | 1.63 |
| SEEDKEREHWERLNRDFELRVLDTTFIAHHAEEVIKLLRWLIK [E42I] | 2.41 |
| SEEDKEREHWERLNRDFELRVLDTTFIAHHAEEVIKLLRWLKK [E42K] | 1.69 |
| SEEDKEREHWERLNRDFELRVLDTTFIAHHAEEVIKLLRWLLK [E42L] | 2.42 |
| SEEDKEREHWERLNRDFELRVLDTTFIAHHAEEVIKLLRWLMK [E42M] | 2.4 |
| SEEDKEREHWERLNRDFELRVLDTTFIAHHAEEVIKLLRWLNK [E42N] | 1.56 |
| SEEDKEREHWERLNRDFELRVLDTTFIAHHAEEVIKLLRWLPK [E42P] | 0.291 |
| SEEDKEREHWERLNRDFELRVLDTTFIAHHAEEVIKLLRWLQK [E42Q] | 1.67 |
| SEEDKEREHWERLNRDFELRVLDTTFIAHHAEEVIKLLRWLRK [E42R] | 1.85 |
| SEEDKEREHWERLNRDFELRVLDTTFIAHHAEEVIKLLRWLSK [E42S] | 1.84 |
| SEEDKEREHWERLNRDFELRVLDTTFIAHHAEEVIKLLRWLTK [E42T] | 2.1 |

| Variant | folding stability dG [kcal/mol] |
| --- | --- |
| SEEDKEREHWERLNRDFELRVLDTTFIAHHAEEVIKLLRWLVK [E42V] | 2.26 |
| SEEDKEREHWERLNRDFELRVLDTTFIAHHAEEVIKLLRWLWK [E42W] | 2.59 |
| SEEDKEREHWERLNRDFELRVLDTTFIAHHAEEVIKLLRWLYK [E42Y] | 2.57 |
| SEEDKEREHWERLNRDFELRVLDTTFIAHHAEEVIKLLRWLEA [K43A] | 1.27 |
| SEEDKEREHWERLNRDFELRVLDTTFIAHHAEEVIKLLRWLEC [K43C] | 1.57 |
| SEEDKEREHWERLNRDFELRVLDTTFIAHHAEEVIKLLRWLED [K43D] | 1.45 |
| SEEDKEREHWERLNRDFELRVLDTTFIAHHAEEVIKLLRWLEE [K43E] | 1.3 |
| SEEDKEREHWERLNRDFELRVLDTTFIAHHAEEVIKLLRWLEF [K43F] | 1.57 |
| SEEDKEREHWERLNRDFELRVLDTTFIAHHAEEVIKLLRWLEG [K43G] | 1.82 |
| SEEDKEREHWERLNRDFELRVLDTTFIAHHAEEVIKLLRWLEH [K43H] | 1.17 |
| SEEDKEREHWERLNRDFELRVLDTTFIAHHAEEVIKLLRWLEI [K43I] | 1.38 |
| SEEDKEREHWERLNRDFELRVLDTTFIAHHAEEVIKLLRWLEL [K43L] | 1.36 |
| SEEDKEREHWERLNRDFELRVLDTTFIAHHAEEVIKLLRWLEM [K43M] | 1.5 |
| SEEDKEREHWERLNRDFELRVLDTTFIAHHAEEVIKLLRWLEN [K43N] | 1.3 |
| SEEDKEREHWERLNRDFELRVLDTTFIAHHAEEVIKLLRWLEP [K43P] | 0.967 |
| SEEDKEREHWERLNRDFELRVLDTTFIAHHAEEVIKLLRWLEQ [K43Q] | 1.36 |
| SEEDKEREHWERLNRDFELRVLDTTFIAHHAEEVIKLLRWLER [K43R] | 1.65 |
| SEEDKEREHWERLNRDFELRVLDTTFIAHHAEEVIKLLRWLES [K43S] | 1.2 |
| SEEDKEREHWERLNRDFELRVLDTTFIAHHAEEVIKLLRWLET [K43T] | 1.22 |
